{
  "source": "paper PMC5630374",
  "tested_on": "T1, His-CalR (Vibrio parahaemolyticus RIMD2210633), ORF:1a4fc32f",
  "T1 sequence": "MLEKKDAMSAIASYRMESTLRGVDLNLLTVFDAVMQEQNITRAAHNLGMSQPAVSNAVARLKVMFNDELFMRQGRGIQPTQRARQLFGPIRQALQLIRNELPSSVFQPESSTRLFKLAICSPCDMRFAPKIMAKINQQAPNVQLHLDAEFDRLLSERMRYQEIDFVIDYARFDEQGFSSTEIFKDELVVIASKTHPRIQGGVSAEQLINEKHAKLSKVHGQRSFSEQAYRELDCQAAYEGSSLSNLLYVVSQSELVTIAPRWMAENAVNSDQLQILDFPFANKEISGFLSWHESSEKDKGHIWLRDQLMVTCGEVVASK",
  "test": "DNase I footprinting",
  "settings": "10 mM Tris-HCl pH 7.5, 50 mM NaCl, 1 mM MgCl2, 0.5 mM EDTA, 0.5 mM DTT, 10 mg/ml salmon sperm DNA (so in the source), room temperature, 20 min (EMSA) or 30 min (ToxR …)",
  "data": [
    {"sequence": "CAGGAAACAGCTATGACCGGCTTATATTTATTCTACAGATGGACAGCAATAACGTTCCACGTACAACACGTAATTAACATAGTATTTAATTTTTAAGATAACACAATTCTAATTCTTCATCGCTTGTCGATATAAACCAAAATCCCACCATAATAGAATTTAATAACCGTTAATCTTTATATGCACCAGCACTCATTTGTAAGATTAGAAGCAAGGAGTCAATTCTGGGTTTCCGGCCAAAATATAATAACTAACAACCAAAATTGATAAACACTGGCCGTCGTTTTAC (double strand) [exsB promoter, footprint fragment]", "values": [
      {"measurement": "binding", "result": "binds"}
    ]}
  ]
}
